In the supplement of paper PMC5998384:

Assays:
HeLa Kyoto [1] = experiment: solubility in G1/S (NP-40 vs SDS abundance) (log2 ratio); higher = more soluble; details: cell cycle stage: G1/S
HeLa Kyoto [2] = experiment: melting temperature (median over replicates), in situ; higher = more thermally stable
HeLa Kyoto [3] = experiment: solubility change mitosis vs G1/S (difference of NP-40 vs SDS log2 ratios) (log2 ratio difference); higher = more soluble in mitosis
HeLa Kyoto [4] = experiment: thermal stability score vs G1/S (z-score of summed log2 fold changes over temperatures); higher = more thermally stable than in G1/S
[5] = cell cycle stage: early G1 (4.5 h after nocodazole release)
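Wherever melting temperature (median over replicates), in situ is given: HeLa Kyoto cells synchronized by double thymidine or nocodazole block, proteins quantified by TMT10plex mass spectrometry, three independent biological replicates.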
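Wherever solubility change mitosis vs G1/S (difference of NP-40 vs SDS log2 ratios) is given: synchronized HeLa Kyoto cells (double thymidine block for G1/S, nocodazole release for mitosis), protein amounts in NP-40 versus SDS lysates quantified by mass spectrometry, three biological replicates.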
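Wherever solubility in G1/S (NP-40 vs SDS abundance) is given: HeLa Kyoto cells arrested at G1/S by double thymidine block, proteins quantified by TMT10plex mass spectrometry in mild NP-40 versus SDS extracts, three biological replicates.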
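Wherever thermal stability score vs G1/S (z-score of summed log2 fold changes over temperatures) is given: synchronized HeLa Kyoto cells, proteins quantified by TMT10plex mass spectrometry, three biological replicates, mitosis taken 0.5 h after nocodazole release, G1/S directly after double thymidine block.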

LARS, sequence (chain, as listed by the source): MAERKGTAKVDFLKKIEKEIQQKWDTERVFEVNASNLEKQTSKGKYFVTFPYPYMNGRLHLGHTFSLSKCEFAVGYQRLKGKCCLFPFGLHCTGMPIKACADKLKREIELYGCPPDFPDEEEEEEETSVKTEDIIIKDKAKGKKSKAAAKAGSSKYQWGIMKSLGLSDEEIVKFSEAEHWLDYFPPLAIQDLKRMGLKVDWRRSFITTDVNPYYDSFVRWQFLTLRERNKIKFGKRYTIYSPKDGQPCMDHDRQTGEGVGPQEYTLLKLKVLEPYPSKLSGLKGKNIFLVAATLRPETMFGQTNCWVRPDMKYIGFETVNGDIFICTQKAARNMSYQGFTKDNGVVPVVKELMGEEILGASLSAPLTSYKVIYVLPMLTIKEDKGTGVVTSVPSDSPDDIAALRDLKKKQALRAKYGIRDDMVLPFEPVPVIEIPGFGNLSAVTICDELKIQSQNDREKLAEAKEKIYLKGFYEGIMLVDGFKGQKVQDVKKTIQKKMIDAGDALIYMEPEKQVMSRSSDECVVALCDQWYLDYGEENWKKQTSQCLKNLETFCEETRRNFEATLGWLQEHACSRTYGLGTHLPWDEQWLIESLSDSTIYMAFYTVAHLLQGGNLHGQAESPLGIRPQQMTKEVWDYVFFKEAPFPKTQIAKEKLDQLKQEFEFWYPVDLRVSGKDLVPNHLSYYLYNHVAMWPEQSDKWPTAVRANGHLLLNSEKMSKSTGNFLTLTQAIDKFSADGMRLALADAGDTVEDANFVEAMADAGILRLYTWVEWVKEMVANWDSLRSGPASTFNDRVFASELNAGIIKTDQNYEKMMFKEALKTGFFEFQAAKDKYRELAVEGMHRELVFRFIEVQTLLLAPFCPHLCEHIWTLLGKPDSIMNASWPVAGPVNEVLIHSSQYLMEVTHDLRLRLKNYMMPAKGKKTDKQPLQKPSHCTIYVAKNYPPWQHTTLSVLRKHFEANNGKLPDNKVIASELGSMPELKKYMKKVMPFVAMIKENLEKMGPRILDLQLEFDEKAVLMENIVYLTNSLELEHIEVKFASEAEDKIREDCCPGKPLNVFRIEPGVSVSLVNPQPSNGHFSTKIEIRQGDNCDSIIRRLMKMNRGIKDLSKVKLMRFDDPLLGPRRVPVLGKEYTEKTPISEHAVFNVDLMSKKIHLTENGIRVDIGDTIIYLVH

Substance	solubility in G1/S (log2) (HeLa Kyoto [1])	melting temperature (HeLa Kyoto [2]; cell cycle stage: G1/S) [°C]	melting temperature (HeLa Kyoto [2]; cell cycle stage: mitosis) [°C]	solubility change mitosis (log2) (HeLa Kyoto [3])	thermal stability score (HeLa Kyoto [4]; [5])	thermal stability score (HeLa Kyoto [4]; cell cycle stage: mitosis)
MLCVGRLGGLGARAAALPPRRAGRGSLEAGIRARRVSTSWSPVGAAFNVKPQGSRLDLFGERRGLFGVPELSAPEGFHIAQEKALRKTELLVDRACSTPPGPQTVLIFDELSDSLCRVADLADFVKIAHPEPAFREAAEEACRSIGTMVEKLNTNVDLYQSLQKLLADKKLVDSLDPETRRVAELFMFDFEISGIHLDKEKRKRAVDLNVKILDLSSTFLMGTNFPNKIEKHLLPEHIRRNFTSAGDHIIIDGLHAESPDDLVREAAYKIFLYPNAGQLKCLEELLSSRDLLAKLVGYSTFSHRALQGTIAKNPETVMQFLEKLSDKLSERTLKDFEMIRGMKMKLNPQNSEVMPWDPPYYSGVIRAERYNIEPSLYCPFFSLGACMEGLNILLNRLLGISLYAEQPAKGEVWSEDVRKLAVVHESEGLLGYIYCDFFQRADKPHQDCHFTIRGGRLKEDGDYQLPVVVLMLNLPRSSRSSPTLLTPSMMENLFHEMGHAMHSMLGRTRYQHVTGTRCPTDFAEVPSILMEYFANDYRVVNQFARHYQTGQPLPKNMVSRLCESKKVCAAADMQLQVFYATLDQIYHGKHPLRNSTTDILKETQEKFYGLPYVPNTAWQLRFSHLVGYGARYYSYLMSRAVASMVWKECFLQDPFNRAAGERYRREMLAHGGGREPMLMVEGMLQKCPSVDDFVSALVSDLDLDFETFLMDSE [MIPEP]	-0.0439	51.2	50.4	-0.0647	0.154	0.0672
SRGAP2	0.0333	50	50.5	0.0509	0.993	0.737
MASSDIQVKELEKRASGQAFELILSPRSKESVPEFPLSPPKKKDLSLEEIQKKLEAAEERRKSHEAEVLKQLAEKREHEKEVLQKAIEENNNFSKMAEEKLTHKMEANKENREAQMAAKLERLREKDKHIEEVRKNKESKDPADETEAD [STMN1]	0.635	56.7	64.1	0.208	-6.5	-5.49
PLEC	-2.57	53.2	52.7	0.643	-8.96	-8.24
MAPVGGGGRPVGGPARGRLLLAAPVLLVLLWALGARGQGSPQQGTIVGMRLASCNKSCGTNPDGIIFVSEGSTVNLRLYGYSLGNISSNLISFTEVDDAETLHKSTSCLELTKDLVVQQLVNVSRGNTSGVLVVLTKFLRRSESMKLYALCTRAQPDGPWLKWTDKDSLLFMVEEPGRFLPLWLHILLITVLLVLSGIFSGLNLGLMALDPMELRIVQNCGTEKERRYARKIEPIRRKGNYLLCSLLLGNVLVNTSLTILLDNLIGSGLMAVASSTIGIVIFGEILPQALCSRHGLAVGANTILLTKFFMLLTFPLSFPISKLLDFFLGQEIRTVYNREKLMEMLKVTEPYNDLVKEELNMIQGALELRTKTVEDIMTQLQDCFMIRSDAILDFNTMSEIMESGYTRIPVFEDEQSNIVDILYVKDLAFVDPDDCTPLKTITRFYNHPVHFVFHDTKLDAMLEEFKKGKSHLAIVQKVNNEGEGDPFYEVLGLVTLEDVIEEIIKSEILDESDMYTDNRSRKRVSEKNKRDFSAFKDADNELKVKISPQLLLAAHRFLATEVSQFSPSLISEKILLRLLKYPDVIQELKFDEHNKYYARHYLYTRNKPADYFILILQGKVEVEAGKENMKFETGAFSYYGTMALTSVPSDRSPAHPTPLSRSASLSYPDRTDVSTAATLAGSSNQFGSSVLGQYISDFSVRALVDLQYIKITRQQYQNGLLASRMENSPQFPIDGCTTHMENLAEKSELPVVDETTTLLNERNSLLHKASHENAI [CNNM4]	-0.12	51.7	52.1	-0.0459	-0.56	-0.485
MGVWLNKDDYIRDLKRIILCFLIVYMAILVGTDQDFYSLLGVSKTASSREIRQAFKKLALKLHPDKNPNNPNAHGDFLKINRAYEVLKDEDLRKKYDKYGEKGLEDNQGGQYESWNYYRYDFGIYDDDPEIITLERREFDAAVNSGELWFVNFYSPGCSHCHDLAPTWRDFAKEVDGLLRIGAVNCGDDRMLCRMKGVNSYPSLFIFRSGMAPVKYHGDRSKESLVSFAMQHVRSTVTELWTGNFVNSIQTAFAAGIGWLITFCSKGGDCLTSQTRLRLSGMLDGLVNVGWMDCATQDNLCKSLDITTSTTAYFPPGATLNNKEKNSILFLNSLDAKEIYLEVIHNLPDFELLSANTLEDRLAHHRWLLFFHFGKNENSNDPELKKLKTLLKNDHIQVGRFDCSSAPDICSNLYVFQPSLAVFKGQGTKEYEIHHGKKILYDILAFAKESVNSHVTTLGPQNFPANDKEPWLVDFFAPWCPPCRALLPELRRASNLLYGQLKFGTLDCTVHEGLCNMYNIQAYPTTVVFNQSNIHEYEGHHSAEQILEFIEDLMNPSVVSLTPTTFNELVTQRKHNEVWMVDFYSPWCHPCQVLMPEWKRMARTLTGLINVGSIDCQQYHSFCAQENVQRYPEIRFFPPKSNKAYHYHSYNGWNRDAYSLRIWGLGFLPQVSTDLTPQTFSEKVLQGKNHWVIDFYAPWCGPCQNFAPEFELLARMIKGKVKAGKVDCQAYAQTCQKAGIRAYPTVKFYFYERAKRNFQEEQINTRDAKAIAALISEKLETLRNQGKRNKDEL [DNAJC10]	-0.000819	54.7	55.4	-0.125	3.17	4.65
LARS	-0.189	49	49.1	-0.14	-0.182	2.83
MSLRQRLAQLVGRLQDPQKVARFQRLCGVEAPPRRSADRREDEKAEAPLAGDPRLRGRQPGAPGGPQPPGSDRNQCPAKPDGGGAPNGVRNGLAAELGPASPRRAGALRRNSLTGEEGQLARVSNWPLYCLFCFGTELGNELFYILFFPFWIWNLDPLVGRRLVVIWVLVMYLGQCTKDIIRWPRPASPPVVKLEVFYNSEYSMPSTHAMSGTAIPISMVLLTYGRWQYPLIYGLILIPCWCSLVCLSRIYMGMHSILDIIAGFLYTILILAVFYPFVDLIDNFNQTHKYAPFIIIGLHLALGIFSFTLDTWSTSRGDTAEILGSGAGIACGSHVTYNMGLVLDPSLDTLPLAGPPITVTLFGKAILRILIGMVFVLIIRDVMKKITIPLACKIFNIPCDDIRKARQHMEVELPYRYITYGMVGFSITFFVPYIFFFIGIS [SGPP1]	-0.0125	53.9	53.4	-0.122	1.45	1.19
MAAAEEEPKPKKLKVEAPQALRENILFGMGNPLLDISAVVDKDFLDKYSLKPNDQILAEDKHKELFDELVKKFKVEYHAGGSTQNSIKVAQWMIQQPHKAATFFGCIGIDKFGEILKRKAAEAHVDAHYYEQNEQPTGTCAACITGDNRSLIANLAAANCYKKEKHLDLEKNWMLVEKARVCYIAGFFLTVSPESVLKVAHHASENNRIFTLNLSAPFISQFYKESLMKVMPYVDILFGNETEAATFAREQGFETKDIKEIAKKTQALPKMNSKRQRIVIFTQGRDDTIMATESEVTAFAVLDQDQKEIIDTNGAGDAFVGGFLSQLVSDKPLTECIRAGHYAASIIIRRTGCTFPEKPDFH [ADK]	0.242	56.3	56.9	-0.112	1.79	2.86
MAVSVTPIRDTKWLTLEVCREFQRGTCSRPDTECKFAHPSKSCQVENGRVIACFDSLKGRCSRENCKYLHPPPHLKTQLEINGRNNLIQQKNMAMLAQQMQLANAMMPGAPLQPVPMFSVAPSLATNASAAAFNPYLGPVSPSLVPAEILPTAPMLVTGNPGVPVPAAAAAAAQKLMRTDRLEVCREYQRGNCNRGENDCRFAHPADSTMIDTNDNTVTVCMDYIKGRCSREKCKYFHPPAHLQAKIKAAQYQVNQAAAAQAAATAAAMTQSAVKSLKRPLEATFDLGIPQAVLPPLPKRPALEKTNGATAVFNTGIFQYQQALANMQLQQHTAFLPPVPMVHGATPATVSAATTSATSVPFAATATANQIPIISAEHLTSHKYVTQM [MBNL1]	0.11	52.3	52.2	0.353	-3.27	-3.37
MAACRYCCSCLRLRPLSDGPFLLPRRDRALTQLQVRALWSSAGSRAVAVDLGNRKLEISSGKLARFADGSAVVQSGDTAVMVTAVSKTKPSPSQFMPLVVDYRQKAAAAGRIPTNYLRREIGTSDKEILTSRIIDRSIRPLFPAGYFYDTQVLCNLLAVDGVNEPDVLAINGASVALSLSDIPWNGPVGAVRIGIIDGEYVVNPTRKEMSSSTLNLVVAGAPKSQIVMLEASAENILQQDFCHAIKVGVKYTQQIIQGIQQLVKETGVTKRTPQKLFTPSPEIVKYTHKLAMERLYAVFTDYEHDKVSRDEAVNKIRLDTEEQLKEKFPEADPYEIIESFNVVAKEVFRSIVLNEYKRCDGRDLTSLRNVSCEVDMFKTLHGSALFQRGQTQVLCTVTFDSLESGIKSDQVITAINGIKDKNFMLHYEFPPYATNEIGKVTGLNRRELGHGALAEKALYPVIPRDFPFTIRVTSEVLESNGSSSMASACGGSLALMDSGVPISSAVAGVAIGLVTKTDPEKGEIEDYRLLTDILGIEDYNGDMDFKIAGTNKGITALQADIKLPGIPIKIVMEAIQQASVAKKEILQIMNKTISKPRASRKENGPVVETVQVPLSKRAKFVGPGGYNLKKLQAETGVTISQVDEETFSVFAPTPSAMHEARDFITEICKDDQEQQLEFGAVYTATITEIRDTGVMVKLYPNMTAVLLHNTQLDQRKIKHPTALGLEVGQEIQVKYFGRDPADGRMRLSRKVLQSPATTVVRTLNDRSSIVMGEPISQSSSNSQ [PNPT1]	0.0945	49.8	50	-0.154	0.177	1.84
MVKEQFRETDVAKKISHICFGMKSPEEMRQQAHIQVVSKNLYSQDNQHAPLLYGVLDHRMGTSEKDRPCETCGKNLADCLGHYGYIDLELPCFHVGYFRAVIGILQMICKTCCHIMLSQEEKKQFLDYLKRPGLTYLQKRGLKKKISDKCRKKNICHHCGAFNGTVKKCGLLKIIHEKYKTNKKVVDPIVSNFLQSFETAIEHNKEVEPLLGRAQENLNPLVVLNLFKRIPAEDVPLLLMNPEAGKPSDLILTRLLVPPLCIRPSVVSDLKSGTNEDDLTMKLTEIIFLNDVIKKHRISGAKTQMIMEDWDFLQLQCALYINSELSGIPLNMAPKKWTRGFVQRLKGKQGRFRGNLSGKRVDFSGRTVISPDPNLRIDEVAVPVHVAKILTFPEKVNKANINFLRKLVQNGPEVHPGANFIQQRHTQMKRFLKYGNREKMAQELKYGDIVERHLIDGDVVLFNRQPSLHKLSIMAHLARVKPHRTFRFNECVCTPYNADFDGDEMNLHLPQTEEAKAEALVLMGTKANLVTPRNGEPLIAAIQDFLTGAYLLTLKDTFFDRAKACQIIASILVGKDEKIKVRLPPPTILKPVTLWTGKQIFSVILRPSDDNPVRANLRTKGKQYCGKGEDLCANDSYVTIQNSELMSGSMDKGTLGSGSKNNIFYILLRDWGQNEAADAMSRLARLAPVYLSNRGFSIGIGDVTPGQGLLKAKYELLNAGYKKCDEYIEALNTGKLQQQPGCTAEETLEALILKELSVIRDHAGSACLRELDKSNSPLTMALCGSKGSFINISQMIACVGQQAISGSRVPDGFENRSLPHFEKHSKLPAAKGFVANSFYSGLTPTEFFFHTMAGREGLVDTAVKTAETGYMQRRLVKSLEDLCSQYDLTVRSSTGDIIQFIYGGDGLDPAAMEGKDEPLEFKRVLDNIKAVFPCPSEPALSKNELILTTESIMKKSEFLCCQDSFLQEIKKFIKGVSEKIKKTRDKYGINDNGTTEPRVLYQLDRITPTQVEKFLETCRDKYMRAQMEPGSAVGALCAQSIGEPGTQMTLKTFHFAGVASMNITLGVPRIKEIINASKAISTPIITAQLDKDDDADYARLVKGRIEKTLLGEISEYIEEVFLPDDCFILVKLSLERIRLLRLEVNAETVRYSICTSKLRVKPGDVAVHGEAVVCVTPRENSKSSMYYVLQFLKEDLPKVVVQGIPEVSRAVIHIDEQSGKEKYKLLVEGDNLRAVMATHGVKGTRTTSNNTYEVEKTLGIEAARTTIINEIQYTMVNHGMSIDRRHVMLLSDLMTYKGEVLGITRFGLAKMKESVLMLASFEKTADHLFDAAYFGQKDSVCGVSECIIMGIPMNIGTGLFKLLHKADRDPNPPKRPLIFDTNEFHIPLVT [POLR3A]	-0.268	49.1	49.9	-0.101	0.905	2.38
